Source: paper PMC12338045 (Science (New York, N.Y.), 2025)

Experiments:
Mcm4 (yeast) = molecular target: T1, Mcm4 (yeast) (budding yeast, UniProt P30665 1-933); assay: cryo-EM structure
T1 sequence: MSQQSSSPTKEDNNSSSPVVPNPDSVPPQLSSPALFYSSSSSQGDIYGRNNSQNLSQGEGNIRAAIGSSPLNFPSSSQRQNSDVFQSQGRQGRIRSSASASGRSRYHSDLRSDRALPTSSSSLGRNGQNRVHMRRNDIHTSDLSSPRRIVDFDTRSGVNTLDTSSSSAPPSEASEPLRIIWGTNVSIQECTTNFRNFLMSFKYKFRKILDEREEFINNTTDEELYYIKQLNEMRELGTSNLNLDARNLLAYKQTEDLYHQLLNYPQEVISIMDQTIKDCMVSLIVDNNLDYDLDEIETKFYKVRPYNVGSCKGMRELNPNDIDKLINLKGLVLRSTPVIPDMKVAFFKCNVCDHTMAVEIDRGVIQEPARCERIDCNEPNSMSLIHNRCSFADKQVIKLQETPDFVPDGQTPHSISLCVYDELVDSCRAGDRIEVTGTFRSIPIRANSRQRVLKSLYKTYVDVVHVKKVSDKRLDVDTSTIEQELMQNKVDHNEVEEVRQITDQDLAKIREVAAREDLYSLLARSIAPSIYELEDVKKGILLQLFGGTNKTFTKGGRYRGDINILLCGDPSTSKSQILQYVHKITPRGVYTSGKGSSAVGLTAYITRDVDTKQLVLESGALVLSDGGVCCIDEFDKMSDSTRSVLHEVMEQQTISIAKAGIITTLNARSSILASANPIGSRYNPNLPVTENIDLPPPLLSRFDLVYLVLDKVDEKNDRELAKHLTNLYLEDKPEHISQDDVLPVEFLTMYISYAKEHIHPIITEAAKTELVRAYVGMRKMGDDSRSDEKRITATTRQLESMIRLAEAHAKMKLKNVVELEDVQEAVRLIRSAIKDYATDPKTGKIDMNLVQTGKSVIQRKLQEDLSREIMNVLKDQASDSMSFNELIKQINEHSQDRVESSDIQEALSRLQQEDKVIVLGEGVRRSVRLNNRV

Mcm3 (yeast) = Mcm3 (yeast) (budding yeast, UniProt P24279 1-971); assay: cryo-EM structure
Sequence of Mcm3 (yeast) (P24279 whole entry): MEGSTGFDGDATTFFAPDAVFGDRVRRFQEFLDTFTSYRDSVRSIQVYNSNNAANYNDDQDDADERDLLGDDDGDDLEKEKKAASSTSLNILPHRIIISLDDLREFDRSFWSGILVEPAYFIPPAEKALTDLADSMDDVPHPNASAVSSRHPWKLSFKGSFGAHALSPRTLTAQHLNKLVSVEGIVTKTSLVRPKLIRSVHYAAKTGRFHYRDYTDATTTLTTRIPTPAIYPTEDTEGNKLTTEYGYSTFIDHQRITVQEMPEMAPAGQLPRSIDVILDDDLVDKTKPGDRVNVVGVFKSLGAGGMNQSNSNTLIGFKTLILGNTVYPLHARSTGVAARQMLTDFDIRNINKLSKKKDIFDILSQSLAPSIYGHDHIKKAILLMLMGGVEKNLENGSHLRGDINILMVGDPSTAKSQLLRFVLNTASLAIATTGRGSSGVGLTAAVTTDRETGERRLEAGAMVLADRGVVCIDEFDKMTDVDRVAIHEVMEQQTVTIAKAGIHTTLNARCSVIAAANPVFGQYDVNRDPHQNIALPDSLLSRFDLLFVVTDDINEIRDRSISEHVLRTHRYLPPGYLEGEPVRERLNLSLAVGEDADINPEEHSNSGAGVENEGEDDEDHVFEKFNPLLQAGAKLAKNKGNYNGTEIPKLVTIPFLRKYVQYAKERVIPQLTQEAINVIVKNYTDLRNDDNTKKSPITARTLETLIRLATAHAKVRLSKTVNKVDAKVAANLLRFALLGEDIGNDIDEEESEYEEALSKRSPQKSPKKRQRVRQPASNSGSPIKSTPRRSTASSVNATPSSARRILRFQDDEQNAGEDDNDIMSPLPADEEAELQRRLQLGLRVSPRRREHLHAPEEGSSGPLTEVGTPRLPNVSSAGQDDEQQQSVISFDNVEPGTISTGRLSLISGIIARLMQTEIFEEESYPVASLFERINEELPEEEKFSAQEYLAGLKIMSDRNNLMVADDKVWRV

binding result (Mcm4 (yeast)): binds
binding result (Mcm3 (yeast)): binds
B1: Mcm7 (yeast) (natural protein, budding yeast)
chain: MSAALPSIQLPVDYNNLFNEITDFLVTFKQDTLSSDATRNENEDENLDAENIEQHLLEKGPKYMAMLQKVANRELNSVIIDLDDILQYQNEKFLQGTQADDLVSAIQQNANHFTELFCRAIDNNMPLPTKEIDYKDDVLDVILNQRRLRNERMLSDRTNEIRSENLMDTTMDPPSSMNDALREVVEDETELFPPNLTRRYFLYFKPLSQNCARRYRKKAISSKPLSVRQIKGDFLGQLITVRGIITRVSDVKPAVEVIAYTCDQCGYEVFQEVNSRTFTPLSECTSEECSQNQTKGQLFMSTRASKFSAFQECKIQELSQQVPVGHIPRSLNIHVNGTLVRSLSPGDIVDVTGIFLPAPYTGFKALKAGLLTETYLEAQFVRQHKKKFASFSLTSDVEERVMELITSGDVYNRLAKSIAPEIYGNLDVKKALLLLLVGGVDKRVGDGMKIRGDINVCLMGDPGVAKSQLLKAICKISPRGVYTTGKGSSGVGLTAAVMKDPVTDEMILEGGALVLADNGICCIDEFDKMDESDRTAIHEVMEQQTISISKAGINTTLNARTSILAAANPLYGRYNPRLSPLDNINLPAALLSRFDILFLMLDIPSRDDDEKLAEHVTYVHMHNKQPDLDFTPVEPSKMREYIAYAKTKRPVMSEAVNDYVVQAYIRLRQDSKREMDSKFSFGQATPRTLLGIIRLSQALAKLRLADMVDIDDVEEALRLVRVSKESLYQETNKSKEDESPTTKIFTIIKKMLQETGKNTLSYENIVKTVRLRGFTMLQLSNCIQEYSYLNVWHLINEGNTLKFVDDGTMDTDQEDSLVSTPKLAPQTTASANVSAQDSDIDLQDA
